# Assay results as given in US20260217833A1 (APTEVO RESEARCH AND DEVELOPMENT, published 2026).
# Legend:
# Human PD-L1 full-length = molecular target: T1, Human PD-L1 full-length (human, UniProt Q9NZQ7 19-290); assay: MSD cell binding, CHOK1SV/human PD-L1 cells; x axis without printed unit
# T1 construct: also called PDL01021; CHOK1SV/huPDL1
# Cyno PD-L1 full-length = molecular target: T2, Cyno PD-L1 full-length (cynomolgus, UniProt Q9NZQ7 19-290 (human entry)); assay: MSD cell binding, CHOK1SV/cynomolgus PD-L1 cells; x axis without printed unit
# T2 construct: also called PDL01022; CHOK1SV/cynoPDL1
# human CD40 full-length = molecular target: T3, human CD40 full-length (human, UniProt P25942 21-277); assay: flow cytometry, CHOK1SV/human CD40 cells
# T3 construct: Also used for CD40 of Daudi cells, of CD40-expressing HEK293 cells and of the BPS CD40/NFkB HEK293 reporter cells where the row says so; also called CD4001012; CHOK1SV/CD40
# T2 sequence (Q9NZQ7 other isoform, or with tags, fused parts or gaps): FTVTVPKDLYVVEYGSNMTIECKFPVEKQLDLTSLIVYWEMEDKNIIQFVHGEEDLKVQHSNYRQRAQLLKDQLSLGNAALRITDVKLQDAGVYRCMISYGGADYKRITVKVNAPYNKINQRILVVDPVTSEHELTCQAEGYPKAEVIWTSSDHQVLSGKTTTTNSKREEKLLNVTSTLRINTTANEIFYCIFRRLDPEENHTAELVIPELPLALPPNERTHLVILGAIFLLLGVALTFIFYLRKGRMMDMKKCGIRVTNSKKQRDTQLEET
# T1 sequence (Q9NZQ7 19-290): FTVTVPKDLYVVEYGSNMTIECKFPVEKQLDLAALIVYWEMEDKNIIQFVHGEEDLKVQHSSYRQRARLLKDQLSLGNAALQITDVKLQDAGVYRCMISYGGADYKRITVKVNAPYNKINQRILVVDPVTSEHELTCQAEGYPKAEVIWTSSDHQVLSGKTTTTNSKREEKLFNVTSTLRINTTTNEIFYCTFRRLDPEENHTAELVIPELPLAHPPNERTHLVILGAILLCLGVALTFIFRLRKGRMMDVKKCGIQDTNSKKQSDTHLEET
binding result (Human PD-L1 full-length),binding result (Cyno PD-L1 full-length),binding result (human CD40 full-length),EC50 (read off the curve) (human CD40 full-length),Binder
,,binds,,"CD4001087 (Fc fusion, As m65; not shown: wildtype IgG1 Fc region) EVVMTQSPDTLSVSPGERATLSCRSSQSLVHYNGYTYLHWYQQKPGQVPRLLIYKVSNRFSGVPARFTGSGSGTEFTLTISSLQSEDFAVYFCSQTTHVPLTFGQGTKLEIKGGGGSGGGGSGGGGSGGGGSEVQLVESGGGLVQPGRSLRLSCAASGFTFSSYAMSWVRQAPGKGLEWVASISSAGTYIYYADSVQGRFTISRDNGKNSLYLQMNSLRAEDTALYYCARHGNGYDPLWYFDVWGQGTMVTVSS"
binds,binds,,,"PDL01050 (antibody, human IgG1, kappa, V domains shown, positive control; also called 5F11 chimeric mAb) VH: EVKFEESGGGLVQPGGSMKLSCFASGFTFSYYWMNWVRQSPEKGLEWIAEIRLKSNNYATHYAESVKGRFTISRDDSKSSVYLEMNNLRAEDTGIYHCTRPPIYYGNYEAYWGQGTLVTVSA VL: DIQMTQSPSSLSASLGGKVTITCKASQDINKYIAWYQHKPGKGPRLLIHYTSILQPGIPSRFSGSGSGRDYSFSISNLEPEDIATYYCLQYDNLRTFGGGTKLEIKR"
binds,binds,,,"PDL01038 (Fc fusion, also called 7A3-2HL x human IgG1 WT Fc; not shown: human IgG1 WT Fc (hinge-CH2-CH3) and its junction to the scFv) scFv: EVQLQESGPSLVKPSQTLSLTCSVTGDSITSGYWNWIRKFPGNRLEYMGFRSYSGTTYYNPSLKSRISITRDTSKNQYYLQLNSVTTEDTATYYCARFSDFGSSENTMDYWGQGTSVTVSSGGGGSGGGGSGGGGSGGGGSDVQITQSPSYLAASPGETITINCRASKSISKYLAWYQEKPGKTNKLLIYSGSTLQSGIPSRFSGSGSGTDFTLTISSLEPEDFAMYYCQQHNEYPFTFGAGTKLEIK"
binds,binds,,,"PDL01048 (Fc fusion, not shown: a dimerising Fc or GST; small tags and cut ends, also called 7H11LH x human IgG1 WT Fc) scFv: DIVLTQSPASLAVSLGQRATISCRASKSVSKSGYSYLHWYQQKPGQTPKLLIYLASNLESGVPARFSGSGSGTDFTLNIHPVEEEDAATYYCQHSWELPYTFGGGTKLEIKGGGGSGGGGSGGGGSGGGGSEVQLQESGPSLVKPSQTLSLTCSVTGDSITSGYWNWIRKFPGKKLEYMGYISYTGSTYYNPSLKSRISIARDTSKNQYFLQLNSVTTEDTATYYCTRGENWDGGYFDYWGQGTTLTVSS"
,,binds,,"CD4001102 (Fc fusion, As m82; not shown: the human Fc (hinge-CH2-CH3) of the scFv-hFc format) scFv: DIQMTQSPSSLSASVGDRVTITCKSSQSLLFSVNQKNYLAWYQQKPGKAPKLLIYWASTRESGVPSRFSGSGSGTDFTFTISSLQPEDIATYYCQHYYSYPWTFGGGTKVEIKGGGGSGGGGSGGGGSGGGGSQVQLVQSGAEVKKPGASVKVSCKASGYTFSTSWIEWIKQAPGQGLEWIGEILPGSGSTNYNENFRNKATFTADTSISTAYMELSRLRSDDTAVYYCARGDDGSYVRWYFDVWGQGTLVTVSS"
binds,binds,,,"PDL01051 (antibody, human IgG1, kappa, V domains shown, positive control; also called 7A3 chimeric mAb) VH: EVQLQESGPSLVKPSQTLSLTCSVTGDSITSGYWNWIRKFPGNRLEYMGFRSYSGTTYYNPSLKSRISITRDTSKNQYYLQLNSVTTEDTATYYCARFSDFGSSENTMDYWGQGTSVTVSS VL: DIVMTQSHKFMSTSVGDRVTITCKASQDVGTAVAWYQKKPGQSPKLLISWASTRHTGVPDRFTGSGSGTDFTLTISNVQSEDLADYFCQQYSSYPYTFGGGTNLEIKR"
binds,binds,,,"PDL01042 (Fc fusion, also called 3G5LH x human IgG1 WT Fc; not shown: human IgG1 WT Fc (hinge-CH2-CH3) fused C-terminal to the scFv, and its junction) scFv: DIQMTQTTSSLSASLGDRVTISCSASQGIRNYLNWYQQKPDGTVKLLIYYTSTLHSGVPSRFSGSGSGTDYSLTISNLEPEDIATYYCQQYSKLPWTFGGGTRLEIKGGGGSGGGGSGGGGSGGGGSQIQLQQSGPELVKPGASVKISCKASGYTFTDYYINWVKQKPEQGLEWIGWTFPGSINTKYNEKFKGKATLTVDTSSSTAYMQLNSLTSEDTAVYFCARSPYEFDYWGQGTTLTVSS"
,,binds,,"CD4001092 (Fc fusion, As m65; not shown: wildtype IgG1 Fc region) DVVMTQSPDSLAVSLGERATINCRSSQSLVHYNGYTYLHWYQQKPGQPPKLLIYKVSNRFSGVPDRFSGSGSGTDFTLTISSLQAEDVAVYFCSQTTHVPLTFGAGTKLELRGGGGSGGGGSGGGGSGGGGSEVQLVESGGGVVQPGRSLRLSCAASGFTFSSYAMSWVRQAPGKGLEWVASISSAGTYIYYADSVKGRFTISRDNSKNTLYLQMNGLRAEDTAVYYCARHGNGYDPLWYFDVWGQGTLVTVSS"
binds,binds,,,"PDL01036 (6F6HL x human IgG1 WT Fc) (Fc fusion, also called 6F6 clone PDL0136; not shown: human IgG1 WT Fc) QGQMQQSGAELVKPGASVKLSCKTSGFTFSSSYITWLKQKPGQSLEWIAWIYVGTGGISYNQKFTGKAQLTVDTSSSTAYMQFSSLTTEDSAIYYCARHGRYHWYFDVWGAGTTVTVSSGGGGSGGGGSGGGGSGGGGSDIVMTQSHKFMSTSVGDRVTITCKASQDVGTAVAWYQKKPGQSPKLLISWASTRHTGVPDRFTGSGSGTDFTLTISNVQSEDLADYFCQQYSSYPYTFGGGTNLEIK"

# Second part, the binder before the results:
Binder,binding result (Human PD-L1 full-length),binding result (Cyno PD-L1 full-length),binding result (human CD40 full-length),EC50 (read off the curve) (human CD40 full-length)
"PDL01041 (Fc fusion, also called 2C11LH x human IgG1 WT Fc; not shown: human IgG1 WT Fc and any junction residues between scFv and hinge) scFv: DIQMTQSPASLSASVGETVTITCRASENIYSFLAWYQQKQGKSPQLLVYKAKTLTEGVPSRFSGSGSGTQFSLKINSLQPEDFGSYYCQHHYGSPPETFGGGTKVEIKGGGGSGGGGSGGGGSGGGGSDVKLVESGGGLVKPGGSLKLSCAASGFTFSSYTMSWVRQTPEKRLEWVATISSGGNYTYYPDSVKGRFTISRDNAKNTLYLQLSSLKSEDTAMYYCTRDQAYYGNLFTYWGQGTLVTVSA",binds,binds,,
"PDL01047 (Fc fusion, not shown: a dimerising Fc or GST; small tags and cut ends, also called 7A3-2LH x human IgG1 WT Fc) scFv: DVQITQSPSYLAASPGETITINCRASKSISKYLAWYQEKPGKTNKLLIYSGSTLQSGIPSRFSGSGSGTDFTLTISSLEPEDFAMYYCQQHNEYPFTFGAGTKLEIKGGGGSGGGGSGGGGSGGGGSEVQLQESGPSLVKPSQTLSLTCSVTGDSITSGYWNWIRKFPGNRLEYMGFRSYSGTTYYNPSLKSRISITRDTSKNQYYLQLNSVTTEDTATYYCARFSDFGSSENTMDYWGQGTSVTVSS",binds,binds,,
"PDL01033 (Fc fusion, also called 3G11HL x human IgG1 WT Fc; not shown: human IgG1 WT Fc (hinge-CH2-CH3) and its junction to the scFv) scFv: EVQLQESGPSLVKPSQTLSLTCSVTGDSITSGYWNWIRKFPGKKLEYMGYISYTGSTYYNPSLKSRISIARDTSKNQYFLQLNSVTTEDTATYYCTRGENWDGGYFDYWGQGTTLTVSSGGGGSGGGGSGGGGSGGGGSDIQMTQTTSSLSASLGDRVTISCSASQGIRNYLNWYQQKPDGTVKLLIYYTSTLHSGVPSRFSGSGSGTDYSLTISNLEPEDIATYYCQQYSKLPWTFGGGTRLEIK",binds,binds,,
"PDL01049 (10B2LH x human IgG1 WT Fc) (Fc fusion, not shown: human IgG1 WT Fc) DIQMTQTTSSLSASLGDRVTISCRASQDIRNYLNWYQQKPDGTVKLLIYYTSRLQSGVPSRFSGSGSGTDYSLTITTLEQEDFATYFCQQGNMFPYTFGGGTKLEIKGGGGSGGGGSGGGGSGGGGSKVQLQQSGAEVVKPGASVKLSCKASGYNLTEYIIHWVKQRSGQGLEWIGWFYPGSGSIKYNEKFKDKATLTADKSSTTVYMDLSRLTSEDSAVYFCARHGLYYGFPYWGQGTSVTVSS",binds,binds,,
"PDL01039 (Fc fusion, also called 7H11HL x human IgG1 WT Fc; not shown: human IgG1 WT Fc (hinge-CH2-CH3) and its junction to the scFv) scFv: EVQLQESGPSLVKPSQTLSLTCSVTGDSITSGYWNWIRKFPGKKLEYMGYISYTGSTYYNPSLKSRISIARDTSKNQYFLQLNSVTTEDTATYYCTRGENWDGGYFDYWGQGTTLTVSSGGGGSGGGGSGGGGSGGGGSDIVLTQSPASLAVSLGQRATISCRASKSVSKSGYSYLHWYQQKPGQTPKLLIYLASNLESGVPARFSGSGSGTDFTLNIHPVEEEDAATYYCQHSWELPYTFGGGTKLEIK",binds,binds,,
"CD4001093 (Fc fusion, As m65; not shown: wildtype IgG1 Fc region) DVVMTQSPDTLSLSPGERATLSCRSSQSLVHYNGYTYLHWYQQQPGQAPRLLIYKVSNRFSGIPDRFSGSGSGTDFTLTISRLEPEDFAVYFCSQTTHVPLTFGQGTKLEIKGGGGSGGGGSGGGGSGGGGSEVQLLESGGGLVQPGGSLRLSCAASGFTFSSYAMSWVRQAPGKGLEWVASISSAGTYIYYTDSVKGRFSISRDNSKNTLYLQMNSLRAEDTAVYYCARHGNGYDPLWYFDVWGQGTTVTVSS",,,binds,
"CD4001095 (Fc fusion, As m65; not shown: wildtype IgG1 Fc region) DVVMTQSPDTLSLSPGERATLSCRSSQSLVHYNGYTYLHWYQQQPGQAPRLLIYKVSNRFSGIPDRFSGSGSGTDFTLTISRLEPEDFAVYFCSQTTHVPLTFGQGTKLEIKGGGGSGGGGSGGGGSGGGGSQVQLVESGGGLVQPGGSLRLSCAASGFTFSSYAMSWVRQAPGKGLVWVASISSAGTYIYYADSVKGRFTISRDNAKNTLYLQMTSLRAEDTAIYYCARHGNGYDPLWYFDVWGQGALVTVSS",,,binds,
"CD4001097 (Fc fusion, As m65; not shown: wildtype IgG1 Fc region) EVVMTQSPGTLSLSPGERATLSCRSSQSLVHYNGYTYLHWYQQKPGQAPRLLIYKVSNRFSGIPARFSGSGSGTDFTLTISRLEPEDLAVYFCSQTTHVPLTFGQGTKVEIKGGGGSGGGGSGGGGSGGGGSQVQLVESGGGLVKPGGSLRLSCAASGFTFSSYAMSWVRQAPGKGLEWVASISSAGTYIYYADSVKGRFTISRDNAKNSLYLQMNSLRAEDTAVYYCARHGNGYDPLWYFDVWGAGTTVTVSS",,,,~4 nM
"CD4001101 (Fc fusion, CDR-grafted 1D5 scFv in scFv-hFc format; not shown: the human Fc (hinge-CH2-CH3) of the scFv-hFc format) scFv: DIQMTQSPSTLSASVGDRVTITCKSSQSLLFSVNQKNYLAWYQQKPGKAPKLLIYWASTRESGVPARFSGSGSGTEFTLTISSLQPDDFATYYCQHYYSYPWTFGQGTKVEVKGGGGSGGGGSGGGGSGGGGSQVQLVQSGAEVKKPGASVKVSCKASGYTFSTSWIEWIKQAPGQGLEWIGEILPGSGSTNYNENFRNKATFTADTSISTAYMELSRLRSDDTAVYYCARGDDGSYVRWYFDVWGQGTLVTVSS",,,binds,
